Results published in patent US20080207523.

System: Tenascin-C (human)
Assay: competition

Substance	IC50 (MAG2 conjugate, monomer comparator) [nM]	EC50 (two TTA1-MAG2 joined via bis-maleimide peptide linker P5 (bAla-Ser-Ser-Ser-Dpr-Met-Cys-Ser-Ser-Ser-Lys), competition binding assay against the lead compound) [nM]
TTA1-MAG2 aptamer monomer (2A, lead compound)	5.6	–
(TTA1-MAG2)2P5 aptamer dimer (22A)	–	3.6
